# Data taken from patent KR20220022226A (dated 2022).
# Columns and labels:
# GST 택(tag)이 달린 IL-33 = biological target: T1, GST 택(tag)이 달린 IL-33 (human, UniProt O95760 112-270); test: ELISA, antigen fixed and scFv titrated
# T1 construct: also called GST-IL-33; 재조합 GST-IL-33; not shown: Glutathione S-transferase (GST) tag; It is N-terminal, since stop codons pla
# T1 sequence: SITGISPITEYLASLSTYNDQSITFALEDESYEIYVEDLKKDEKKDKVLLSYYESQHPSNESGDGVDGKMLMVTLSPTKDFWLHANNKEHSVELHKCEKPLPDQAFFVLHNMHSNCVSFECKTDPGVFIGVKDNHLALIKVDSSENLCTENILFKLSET
# IL-6 = IL-6 (UniProt P05231 30-212); test: immunoblot, C2_2E12 as primary antibody, anti-HA-HRP as secondary
# IL-1b = IL-1b (UniProt P01584 117-269); test: as above
# BSA = biological target: T2, BSA (UniProt P02769 25-607); test: as above
# T2 construct: Unrelated control protein in the immunoblot
# T2 sequence (P02769 25-607 limits assumed): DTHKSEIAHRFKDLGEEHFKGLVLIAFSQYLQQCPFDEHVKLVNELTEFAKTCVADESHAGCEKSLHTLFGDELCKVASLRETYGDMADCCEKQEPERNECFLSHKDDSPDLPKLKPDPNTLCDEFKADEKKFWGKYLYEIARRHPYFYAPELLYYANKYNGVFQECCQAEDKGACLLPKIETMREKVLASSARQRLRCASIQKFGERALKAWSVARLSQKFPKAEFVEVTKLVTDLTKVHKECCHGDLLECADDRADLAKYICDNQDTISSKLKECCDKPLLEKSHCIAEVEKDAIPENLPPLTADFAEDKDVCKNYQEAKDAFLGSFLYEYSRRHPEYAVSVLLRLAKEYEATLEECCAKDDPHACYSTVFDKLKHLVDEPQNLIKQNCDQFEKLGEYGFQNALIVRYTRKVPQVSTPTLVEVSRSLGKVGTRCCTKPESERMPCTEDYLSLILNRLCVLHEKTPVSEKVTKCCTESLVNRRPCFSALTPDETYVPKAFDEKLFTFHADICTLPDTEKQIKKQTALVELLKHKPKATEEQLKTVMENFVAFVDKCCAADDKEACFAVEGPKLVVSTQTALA
Binder,Kd (GST 택(tag)이 달린 IL-33),binding result (IL-6),binding result (IL-1b),binding result (BSA)
"C2_2H5 (scFv, scFv clone from a synthetic human scFv phage library; also called Anti-IL-33 scFv C2_2H5) scFv: EVQLLESGGGLVQPGGSLRLSCAASGFTFSSYYMSWVRQAPGKGLEWVSAISPGSSNKYYADSVKGQFTISRDNSKNTLYLQMNSLRAEDTAVYYCAKLSQSFDYWGQGTLVTVSSGGGGSGGGGSGGSGSQSVLTQPPSASGTPGQRVTISCTGSSSNIGNNGISWYQQLPGTAPKLLIYDNSHRPSGVPDRFSGSKSGTSASLAISGLRSEDETDYYCASWDSSLSGYVFGGGTKLTVLGQAGQHHHHHHGAYPYDVPDYAS",31 nM,–,–,–
"C2_2E12 (scFv, The recombinant scFv was purified on Ni-NTA agarose and detected with anti-HA-HRP, so the protein tested probably carried His and HA tags; also called Anti-IL-33 scFv C2_2E12; 재조합 C2_2E12 scFv 항체) scFv: EVQLLESGGGLVQPGGSLRLSCAASGFTFSSYYMSWVRQAPGKGLEWVSAISPGSSNKYYADSVKGRFTISRDNSKNTLYLQMNSLRAEDTAVYYCARLTLSFDYWGQGTPVTVSSGGGGSGGGGSGGGGSQSVLTQPPSASGTPGQRVTISCSGSSSNIGSNDVSWYQQLPGTAPKLLIYADSKRPSGVPDRFSGSKSGTSASLAISGLRSEDEADYYCASWDSSLSAYVFGGGTKLTVLG",28 nM,"no binding (tested: 0.5 mg/ml, 1:100 희석)","no binding (tested: 0.5 mg/ml, 1:100 희석)","no binding (tested: 0.5 mg/ml, 1:100 희석)"
"C2_1D5 (scFv, scFv clone from a synthetic human scFv phage library; also called Anti-IL-33 scFv C2_1D5) scFv: EVQLLESGGGLVQPGGSLRLSCAASGFTFSSYYMSWVRQAPGKGLEWVSAISPGSSNKYYADSVKGRFTISRDNSKNTLYLQMNSLRAEDTAVYYCARLLSAFDYWGQGTLVTVSSGGGGSGGGGSGGGGSQSVLTQPPSASGTPGQRVTISCSGSSSNIGSNDVSWYQQLPGTAPKLLIYSDSNRPSGVPDRFSGSKSGTSASLAISGLRSEDEADYYCGAWDSSLSGYVFGGGTKLTVLGQAGQHHHHHHGAYPYDVPDYAS",36 nM,–,–,–
"C1_1E1 (scFv, scFv clone from a synthetic human scFv phage library; also called Anti-IL-33 scFv C1_1E1) scFv: EVQLLESGGGLVQPGGSLRLSCAASGFTFSSYYMSWVRQAPGKGLEWVSAISPGSSNKYYADSVKGRFTISRDNSKNTLYLQMNSLRAEDTAVYYCAKLTSAFDYWGQGTLVTVSSGGGDSGGGGSGGGGSQSVLTQPPSASGTPGQRVTISCTGSSSNIGSNDVTWYQQLPGTAPKLLIYSDNKRPSGVPDRFSGSKSGTSASLAISGLRSEEEADYYCGAWDSSLSGYVFGGGTKLTVLGQAGQHHHHHHGAYPYDVPDYAS",48 nM,–,–,–
"C2_2A10 (scFv, scFv clone from a synthetic human scFv phage library; also called Anti-IL-33 scFv C2_2A10) scFv: EVQLLESGGGLVQPGGSLRLSCAASGFTFSSYYMSWVRQAPGKGLEWVSAISPGSSNKYYADSVKGRFTISRDNSKNTLYLQMNSLGAEDTAVYYCAKLLTGFDYWGQGTLVTVSSGGGGSGGGGSGGGGSQSVLTQPPSASGTPGQRVTISCSGSSSNIGNNAVSWYQQLPGTAPKLLIYDDNHRPSGVPDRFSGSKSGTSASLAISGLRSEDEADYYCGTWDSSLSAYVFGGGTKLTVLGQAGQHHHHHHGAYPYDVPDYAS",57 nM,–,–,–
"C2_2E1 (scFv, scFv clone from a synthetic human scFv phage library; also called Anti-IL-33 scFv C2_2E1) scFv: EVQLLESGGGLVQPGGSLRLSCAASGFTFSSYYMSWVRQAPGRGLEWVSAISPGSSNKYYADSVKGRFTISRDNSKNTLYLQMNSLRAEDTAVYYCARMTSSFDYWGQGTLVTVSSGGGGSGGGGSGGGGSQSVLTQPPSASGTPGQRVTISCSGSSSNIGNNDVSWYQQLPGTAPKLLIYSDSQRPSGVPDRFSGSKSGTSASLAISGLRSEDEADYYCGSWDYSLSAYVFGGGTKLTVLGQAGQHHHHHHGAYPYDVPDYAS",35 nM,–,–,–
